In patent US20200340992, “DNA APTAMER […] BINDING TO ESAT6, AND USE […]” (MD APTUS INC., published 2020):

Columns and labels:
[1] = target: ESAT6 (early secretory antigenic target 6 kDa) (Mycobacterium tuberculosis H37Rv, UniProt P9WNK7 P9WNK7:1-95); assay: fluorescence of Cy3-aptamer bound to ESAT6 on magnetic beads; 20 mM Tris, 50 mM NaCl, 5 mM KCl, 5 mM MgCl2, pH 8.0; conditions: label: Cy3
Method: 400 pmole of ESAT6 was mixed with 10 μL of magnetic beads, and then incubated in 100 μL of a binding buffer (20 mM Tris, 50 mM NaCl, 5 mM KCl, 5 mM MgCl₂, pH 8.0) for 1 hour. To separate unbound ESAT6, washing was performed twice with a binding buffer. Subsequently, the resulting mixture was incubated together with various concentrations of a Cy3-labeled aptamer, and an unbound aptamer was removed by washing. The amount of Cy3-labeled ssDNA aptamer bound to the magnetic beads with ESAT6 immobilized thereon was measured by fluorescence measurement (1420 Victor Multilabel counter, PerkinElmer, USA) by separating only Cy3-labeled ssDNA bound to ESAT6. As a result, as shown in FIG. 3 and Table 2 below, the Kd value of the DNA aptamer having a EG11(44) base sequence was measured.

CFP-10 = CFP-10 (UniProt P9WNK5 P9WNK5:1-100); assay: electrochemical impedance specificity test; 10 pM protein in PBS
Chain of CFP-10 (P9WNK5 whole entry, one chain of several): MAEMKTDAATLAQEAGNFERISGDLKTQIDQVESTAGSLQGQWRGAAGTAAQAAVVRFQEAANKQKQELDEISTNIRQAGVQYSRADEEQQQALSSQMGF
Source text: (§1) At this time, each protein was mixed at a concentration of 10 pM with PBS and used for detection.

TB7.7 = target: T1, TB7.7 (UniProt P9WJ11 P9WJ11:1-81); assay: as above
T1 sequence: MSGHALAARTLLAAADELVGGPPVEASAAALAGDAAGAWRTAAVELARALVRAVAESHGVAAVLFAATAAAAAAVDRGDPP
Source text: as §1

Chain of ESAT6 (early secretory antigenic target 6 kDa) (P9WNK7 whole entry, one chain of several): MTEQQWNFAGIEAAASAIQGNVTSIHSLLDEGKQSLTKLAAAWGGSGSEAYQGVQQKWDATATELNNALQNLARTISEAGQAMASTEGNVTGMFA

Row | Binder | Kd [1] | binding result (CFP-10) | binding result (TB7.7)
1 | CGAGGTAGCTTACCCGCTTATGTTCACTGTGGGTTGCTGGCTCG (ssDNA) [EG11(44)] | 31.4 nM |  | 
2 | CGAGGTAGCTTACCCGCTTATGTTCACTGTGGGTTGCTGGCTCG (ssDNA) [EG11(44) unlabelled] |  | no binding | no binding
